# From PMC9482650, “Quantitative fragmentomics allow affinity mapping of interactomes” (Nature Communications, 2022)
# T1: DLG3_2, Q92796
# T1 sequence (Q92796 221-321, limits assumed, looked up): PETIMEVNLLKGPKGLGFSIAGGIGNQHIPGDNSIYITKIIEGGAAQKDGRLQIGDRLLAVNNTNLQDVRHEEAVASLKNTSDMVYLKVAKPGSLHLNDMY
# T2: DFNB31_3, Q9P202
# T2 sequence (Q9P202 811-907, limits assumed, looked up): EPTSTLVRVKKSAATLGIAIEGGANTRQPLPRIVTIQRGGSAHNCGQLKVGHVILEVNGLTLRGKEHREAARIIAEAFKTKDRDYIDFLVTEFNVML
# T3: DLG3_3, Q92796
# T3 sequence (Q92796 374-475, limits assumed, looked up): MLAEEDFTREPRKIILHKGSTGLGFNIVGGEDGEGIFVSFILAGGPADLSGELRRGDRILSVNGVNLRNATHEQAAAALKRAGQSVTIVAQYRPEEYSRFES
# T4: HTRA4, P83105
# T4 sequence (P83105 378-476, limits assumed, looked up): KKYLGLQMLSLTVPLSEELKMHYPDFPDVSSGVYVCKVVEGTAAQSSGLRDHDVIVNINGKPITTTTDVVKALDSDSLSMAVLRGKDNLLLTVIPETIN
# T5: LIN7C, Q9NUP9
# T5 sequence (Q9NUP9 88-185, limits assumed, looked up): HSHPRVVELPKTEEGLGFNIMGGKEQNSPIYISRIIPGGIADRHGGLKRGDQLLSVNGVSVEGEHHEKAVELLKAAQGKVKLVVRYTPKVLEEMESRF
# T6: PDZD2_2, O15018
# T6 sequence (O15018 329-429, limits assumed, looked up): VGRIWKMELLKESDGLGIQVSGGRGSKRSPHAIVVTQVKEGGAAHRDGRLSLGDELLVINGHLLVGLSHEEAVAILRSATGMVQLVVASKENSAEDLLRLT
# T7: MPP7, Q5T2T1
# T7 sequence (Q5T2T1 134-230, limits assumed, looked up): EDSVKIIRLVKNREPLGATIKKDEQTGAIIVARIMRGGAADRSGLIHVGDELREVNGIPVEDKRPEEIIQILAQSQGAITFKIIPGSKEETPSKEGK
# T8: RADIL, Q96JH8
# T8 sequence (Q96JH8 971-1071, limits assumed, looked up): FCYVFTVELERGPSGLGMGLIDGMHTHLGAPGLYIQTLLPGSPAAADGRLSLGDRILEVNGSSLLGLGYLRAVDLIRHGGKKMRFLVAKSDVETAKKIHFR
# T9: PTPN13_1, Q12923
# T9 sequence (Q12923 1088-1188, limits assumed, looked up): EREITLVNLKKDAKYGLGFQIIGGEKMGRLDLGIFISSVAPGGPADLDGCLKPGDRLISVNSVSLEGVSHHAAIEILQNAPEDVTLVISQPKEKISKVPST
# T10: TX1BP3, O14907
# T10 sequence (O14907 10-122, limits assumed, looked up): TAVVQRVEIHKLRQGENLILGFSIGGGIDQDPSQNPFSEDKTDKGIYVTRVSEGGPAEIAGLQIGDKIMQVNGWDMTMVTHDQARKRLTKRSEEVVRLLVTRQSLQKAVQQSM
# T11: DFNB31_2, Q9P202
# T11 sequence (Q9P202 274-371, limits assumed, looked up): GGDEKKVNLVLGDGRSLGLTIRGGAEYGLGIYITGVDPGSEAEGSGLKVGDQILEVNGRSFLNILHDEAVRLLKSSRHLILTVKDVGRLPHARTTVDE
# B1: DENND5A, Q6IQ26 (peptide)
# chain: ETSLVKGIDI
# Target: Inadl_6, Q8NI35
# Sequence (Q8NI35 1058-1167): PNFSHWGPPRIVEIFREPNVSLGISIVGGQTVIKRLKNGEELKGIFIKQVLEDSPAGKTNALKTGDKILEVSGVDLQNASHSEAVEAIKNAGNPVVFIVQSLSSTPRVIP
# Experiment: holdup assay
# Parameters: key: below the threshold = too weak to quantify, mostly under pKd 3.1 to 4
# Conditions: plain residues with an end cap or a label only (N-terminal biotin on a linker: ado-ado)
row,Binder,pKd
1,B1,below the threshold

# Target: FRMPD2_3, Q68DX3
# Sequence (Q68DX3 1073-1166): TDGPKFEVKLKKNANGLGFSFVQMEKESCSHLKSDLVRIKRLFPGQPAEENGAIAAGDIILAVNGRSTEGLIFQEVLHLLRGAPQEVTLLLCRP
# Experiment: holdup assay
# Parameters: key: below the threshold = too weak to quantify, mostly under pKd 3.1 to 4
# Conditions: plain residues with an end cap or a label only (N-terminal biotin on a linker: ado-ado)
row,Binder,pKd
1,B1,3.57

# Target: T1, DLG3_2, Q92796
# Experiment: holdup assay
# Parameters: key: below the threshold = too weak to quantify, mostly under pKd 3.1 to 4
# Conditions: plain residues with an end cap or a label only (N-terminal biotin on a linker: ado-ado)
row,Binder,pKd
1,B1,3.57

# Target: DLG4_3, P78352
# Sequence (P78352 306-403): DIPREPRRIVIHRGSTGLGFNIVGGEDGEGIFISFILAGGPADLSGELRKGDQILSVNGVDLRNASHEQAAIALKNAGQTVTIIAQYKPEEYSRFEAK
# Experiment: holdup assay
# Parameters: key: below the threshold = too weak to quantify, mostly under pKd 3.1 to 4
# Conditions: plain residues with an end cap or a label only (N-terminal biotin on a linker: ado-ado)
row,Binder,pKd
1,B1,below the threshold

# Target: T2, DFNB31_3, Q9P202
# Experiment: holdup assay
# Parameters: key: below the threshold = too weak to quantify, mostly under pKd 3.1 to 4
# Conditions: plain residues with an end cap or a label only (N-terminal biotin on a linker: ado-ado)
row,Binder,pKd
1,B1,below the threshold

# Target: HTRA2, O43464
# Sequence (O43464 355-458): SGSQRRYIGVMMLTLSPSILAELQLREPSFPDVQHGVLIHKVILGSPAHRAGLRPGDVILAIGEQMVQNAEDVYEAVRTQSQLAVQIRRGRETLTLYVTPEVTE
# Experiment: holdup assay
# Parameters: key: below the threshold = too weak to quantify, mostly under pKd 3.1 to 4
# Conditions: plain residues with an end cap or a label only (N-terminal biotin on a linker: ado-ado)
row,Binder,pKd
1,B1,below the threshold

# Target: PICK1, Q9NRD5
# Sequence (Q9NRD5 17-115): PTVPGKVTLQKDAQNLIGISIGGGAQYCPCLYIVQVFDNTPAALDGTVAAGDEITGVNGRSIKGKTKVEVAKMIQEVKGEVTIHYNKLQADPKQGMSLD
# Experiment: holdup assay
# Parameters: key: below the threshold = too weak to quantify, mostly under pKd 3.1 to 4
# Conditions: plain residues with an end cap or a label only (N-terminal biotin on a linker: ado-ado)
row,Binder,pKd
1,B1,below the threshold

# Target: GRIP2_4, Q9C0E4
# Sequence (Q9C0E4 446-548): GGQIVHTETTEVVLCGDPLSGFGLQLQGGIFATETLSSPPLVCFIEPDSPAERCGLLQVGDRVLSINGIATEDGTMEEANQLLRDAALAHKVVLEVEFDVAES
# Experiment: holdup assay
# Parameters: key: below the threshold = too weak to quantify, mostly under pKd 3.1 to 4
# Conditions: plain residues with an end cap or a label only (N-terminal biotin on a linker: ado-ado)
row,Binder,pKd
1,B1,below the threshold

# Target: IL16_3, Q14005
# Sequence (Q14005 1107-1207): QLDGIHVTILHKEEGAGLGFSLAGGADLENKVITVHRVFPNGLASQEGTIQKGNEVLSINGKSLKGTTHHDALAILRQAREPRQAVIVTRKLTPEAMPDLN
# Experiment: holdup assay
# Parameters: key: below the threshold = too weak to quantify, mostly under pKd 3.1 to 4
# Conditions: plain residues with an end cap or a label only (N-terminal biotin on a linker: ado-ado)
row,Binder,pKd
1,B1,below the threshold

# Target: T3, DLG3_3, Q92796
# Experiment: holdup assay
# Parameters: key: below the threshold = too weak to quantify, mostly under pKd 3.1 to 4
# Conditions: plain residues with an end cap or a label only (N-terminal biotin on a linker: ado-ado)
row,Binder,pKd
1,B1,below the threshold

# Target: T4, HTRA4, P83105
# Experiment: holdup assay
# Parameters: key: below the threshold = too weak to quantify, mostly under pKd 3.1 to 4
# Conditions: plain residues with an end cap or a label only (N-terminal biotin on a linker: ado-ado)
row,Binder,pKd
1,B1,4.13

# Target: T5, LIN7C, Q9NUP9
# Experiment: holdup assay
# Parameters: key: below the threshold = too weak to quantify, mostly under pKd 3.1 to 4
# Conditions: plain residues with an end cap or a label only (N-terminal biotin on a linker: ado-ado)
row,Binder,pKd
1,B1,below the threshold

# Target: Inadl_4, Q8NI35
# Sequence (Q8NI35 547-651): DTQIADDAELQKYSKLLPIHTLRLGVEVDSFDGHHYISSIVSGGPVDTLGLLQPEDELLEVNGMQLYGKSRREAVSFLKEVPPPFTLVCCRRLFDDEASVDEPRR
# Experiment: holdup assay
# Parameters: key: below the threshold = too weak to quantify, mostly under pKd 3.1 to 4
# Conditions: plain residues with an end cap or a label only (N-terminal biotin on a linker: ado-ado)
row,Binder,pKd
1,B1,below the threshold

# Target: SCRIB_3, Q14160
# Sequence (Q14160 999-1103): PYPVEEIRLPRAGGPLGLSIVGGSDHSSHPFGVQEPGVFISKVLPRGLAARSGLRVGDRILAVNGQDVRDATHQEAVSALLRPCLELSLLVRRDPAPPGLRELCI
# Experiment: holdup assay
# Parameters: key: below the threshold = too weak to quantify, mostly under pKd 3.1 to 4
# Conditions: plain residues with an end cap or a label only (N-terminal biotin on a linker: ado-ado)
row,Binder,pKd
1,B1,3.51

# Target: T6, PDZD2_2, O15018
# Experiment: holdup assay
# Parameters: key: below the threshold = too weak to quantify, mostly under pKd 3.1 to 4
# Conditions: plain residues with an end cap or a label only (N-terminal biotin on a linker: ado-ado)
row,Binder,pKd
1,B1,4

# Target: T7, MPP7, Q5T2T1
# Experiment: holdup assay
# Parameters: key: below the threshold = too weak to quantify, mostly under pKd 3.1 to 4
# Conditions: plain residues with an end cap or a label only (N-terminal biotin on a linker: ado-ado)
row,Binder,pKd
1,B1,4.47

# Target: MAST1, Q9Y2H9
# Sequence (Q9Y2H9 962-1065): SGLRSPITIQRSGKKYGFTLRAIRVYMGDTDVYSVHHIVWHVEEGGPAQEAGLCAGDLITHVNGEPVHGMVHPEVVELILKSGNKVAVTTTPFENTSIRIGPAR
# Experiment: holdup assay
# Parameters: key: below the threshold = too weak to quantify, mostly under pKd 3.1 to 4
# Conditions: plain residues with an end cap or a label only (N-terminal biotin on a linker: ado-ado)
row,Binder,pKd
1,B1,below the threshold

# Target: MAGI2_2, Q86UL8
# Sequence (Q86UL8 410-522): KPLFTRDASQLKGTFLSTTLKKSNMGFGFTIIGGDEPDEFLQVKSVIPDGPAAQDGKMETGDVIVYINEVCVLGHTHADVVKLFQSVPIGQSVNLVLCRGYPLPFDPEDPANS
# Experiment: holdup assay
# Parameters: key: below the threshold = too weak to quantify, mostly under pKd 3.1 to 4
# Conditions: plain residues with an end cap or a label only (N-terminal biotin on a linker: ado-ado)
row,Binder,pKd
1,B1,3.48

# Target: T8, RADIL, Q96JH8
# Experiment: holdup assay
# Parameters: key: below the threshold = too weak to quantify, mostly under pKd 3.1 to 4
# Conditions: plain residues with an end cap or a label only (N-terminal biotin on a linker: ado-ado)
row,Binder,pKd
1,B1,below the threshold

# Target: T9, PTPN13_1, Q12923
# Experiment: holdup assay
# Parameters: key: below the threshold = too weak to quantify, mostly under pKd 3.1 to 4
# Conditions: plain residues with an end cap or a label only (N-terminal biotin on a linker: ado-ado)
row,Binder,pKd
1,B1,below the threshold

# Target: LAP2, Q96RT1
# Sequence (Q96RT1 other isoform, or with tags, fused parts or gaps): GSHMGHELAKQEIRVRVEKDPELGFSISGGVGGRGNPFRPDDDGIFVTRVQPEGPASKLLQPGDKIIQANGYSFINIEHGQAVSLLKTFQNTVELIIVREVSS
# Experiment: holdup assay
# Parameters: key: below the threshold = too weak to quantify, mostly under pKd 3.1 to 4
# Conditions: plain residues with an end cap or a label only (N-terminal biotin on a linker: ado-ado)
row,Binder,pKd
1,B1,3.57

# Target: MAGI2_5, Q86UL8
# Sequence (Q86UL8 915-1017): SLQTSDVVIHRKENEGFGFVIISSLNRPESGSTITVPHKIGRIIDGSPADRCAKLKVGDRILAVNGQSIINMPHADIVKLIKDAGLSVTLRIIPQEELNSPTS
# Experiment: holdup assay
# Parameters: key: below the threshold = too weak to quantify, mostly under pKd 3.1 to 4
# Conditions: plain residues with an end cap or a label only (N-terminal biotin on a linker: ado-ado)
row,Binder,pKd
1,B1,below the threshold

# Target: T10, TX1BP3, O14907
# Experiment: holdup assay
# Parameters: key: below the threshold = too weak to quantify, mostly under pKd 3.1 to 4
# Conditions: plain residues with an end cap or a label only (N-terminal biotin on a linker: ado-ado)
row,Binder,pKd
1,B1,below the threshold

# Target: T11, DFNB31_2, Q9P202
# Experiment: holdup assay
# Parameters: key: below the threshold = too weak to quantify, mostly under pKd 3.1 to 4
# Conditions: plain residues with an end cap or a label only (N-terminal biotin on a linker: ado-ado)
row,Binder,pKd
1,B1,below the threshold

# Target: Inadl_5, Q8NI35
# Sequence (Q8NI35 673-780): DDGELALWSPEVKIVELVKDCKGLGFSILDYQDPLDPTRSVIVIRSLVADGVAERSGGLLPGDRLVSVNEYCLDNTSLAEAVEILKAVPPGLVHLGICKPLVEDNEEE
# Experiment: holdup assay
# Parameters: key: below the threshold = too weak to quantify, mostly under pKd 3.1 to 4
# Conditions: plain residues with an end cap or a label only (N-terminal biotin on a linker: ado-ado)
row,Binder,pKd
1,B1,below the threshold

# Target: NOS1, P29475
# Sequence (P29475 9-101): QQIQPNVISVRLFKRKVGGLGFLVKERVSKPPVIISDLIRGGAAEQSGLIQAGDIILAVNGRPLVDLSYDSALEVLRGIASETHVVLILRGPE
# Experiment: holdup assay
# Parameters: key: below the threshold = too weak to quantify, mostly under pKd 3.1 to 4
# Conditions: plain residues with an end cap or a label only (N-terminal biotin on a linker: ado-ado)
row,Binder,pKd
1,B1,3.52

# Target: Inadl_1, Q8NI35
# Sequence (Q8NI35 113-229): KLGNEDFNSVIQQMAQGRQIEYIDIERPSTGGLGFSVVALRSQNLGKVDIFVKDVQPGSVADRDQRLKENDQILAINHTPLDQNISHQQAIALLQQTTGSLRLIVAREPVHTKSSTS
# Experiment: holdup assay
# Parameters: key: below the threshold = too weak to quantify, mostly under pKd 3.1 to 4
# Conditions: plain residues with an end cap or a label only (N-terminal biotin on a linker: ado-ado)
row,Binder,pKd
1,B1,below the threshold
